Our source for the stoichiometry N values is publication PMC3630358.

This assay addresses TraF/VirB10 C-terminal domain starting at N161 (elastase-cleaved, C-terminal Strep-tag) (Escherichia coli (plasmid pKM101)) (UniProt Q46705). The experiment in a line: cryo-EM structure.

One may read the stoichiometry N as the number of molecules, sites or subunits per partner or assembly. With “TraF/VirB10 C-terminal domain starting at N161 (elastase-cleaved, C-terminal Strep-tag) (from UniProt Q46705 161-386) (domain or fragment)”, the stoichiometry N was 14.
